Measured values taken from publication PMC1257591, “In Vitro Inhibition of Human Hepatic and cDNA-Expressed Sulfotransferase Activity with 3-Hydroxybenzo[a]pyrene by Polychlorobiphenylols” (Environmental Health Perspectives, 2005).
Where a chain is given by its changes, count along the chain named. In names and notes the source's numbering stands.

What was measured:
Type in all cases: biochemical, human
[1] = substrate: Oc1ccc2ccc3c4ccccc4cc4ccc1c2c43; assay: Kinetics of 3-OH-BaP sulfonation by partially purified cDNA-expressed SULT1E1; details: other: apparent, 3-OH-BaP as substrate
Description: (§1) The expression of human SULT1A1*1, SULT1A3, SULT1B1, and SULT1E1 in Escherichia coli has been described previously ([Dajani et al. 1998]; [Wang et al. 1998]). We grew E. coli cells containing the respective sulfotransferase genes as described previously ([Falany et al. 1990], [1994]), and prepared 100,000g supernatant fractions for use in inhibition studies and for partial purification of the SULT enzymes. We purchased expressed SULT1A1*2 cytosolic extract from PanVera (Madison, WI) and used it as supplied.
(§2) The 100,000g supernatant fractions of SULT1A1*1, SULT1A3, SULT1B1, and SULT1E1 were partially purified by chromatographic methods ([Falany et al. 1990], [1994]). After the last step, a 3′-phosphoadenosine 5′-phosphate (PAP)-agarose affinity column, we dialyzed the fractions eluted with PAP with three changes of buffer to remove PAP before the assay of SULT activity with 3-OH-BaP as substrate. We analyzed active fractions by SDS-PAGE ([Laemmli 1970]) to assess the purity of each SULT enzyme. We stained the gels with Coomassie R-250 reagent and determined the percentage of protein present as each respective SULT enzyme by scanning densitometry.
(§3) We determined SULT activity with 3-OH-BaP as substrate by a fluorimetric assay of BaP-3-SO4 product formation, as described previously ([Wang et al. 2004]). […] Duplicate tubes were prepared for each incubation condition. We examined the kinetics of sulfonation in three liver cytosol fractions by systematically varying the concentration of 3-OH-BaP or PAPS. When the variable substrate was 3-OH-BaP, we used 12 concentrations in the range from 0.035 to 2.00 μM, and the concentration of PAPS was kept constant at 10 μM. […]
(§4) We determined the kinetic parameters for 3-OH-BaP sulfonation by partially purified preparations of the cDNA-expressed SULT isozymes under incubation conditions similar to those used for liver cytosol. […]
(§5) We calculated the enzyme kinetic parameters from studies with variable concentrations of 3-OH-BaP using nonlinear regression analysis and GraphPad 4.0 software (GraphPad Software, San Diego, CA). […]

[2] = substrate: Oc1ccc2ccc3c4ccccc4cc4ccc1c2c43; assay: Kinetics of 3-OH-BaP sulfonation by expressed SULT1A1*2; details: other: expressed SULT1A1*2; two-substrate model
Description: as §1
as §3, with “PAPS.” for “PAPS. When the variable substrate was 3-OH-BaP, we used 12 concentrations in the range from 0.035 to 2.00 μM, and the concentration of PAPS was kept constant at 10 μM.”
as §4, §5

[3] = substrate: Oc1ccc2ccc3c4ccccc4cc4ccc1c2c43; assay: Kinetics of 3-OH-BaP sulfonation by partially purified cDNA-expressed SULT1A1*1; details: other: apparent; partially purified SULT1A1*1; 3-OH-BaP as substrate
Description: as §1, §2, §3, §4, §5

[4] = substrate: Oc1ccc2ccc3c4ccccc4cc4ccc1c2c43; assay: Kinetics of 3-OH-BaP sulfonation by partially purified cDNA-expressed SULT1A3; details: other: apparent, 3-OH-BaP as substrate
Description: as §1, §2, §3, §4, §5

B1: SULT1E1 (Homo sapiens) (protein)
chain: MNSELDYYEKFEEVHGILMYKDFVKYWDNVEAFQARPDDLVIATYPKSGTTWVSEIVYMIYKEGDVEKCKEDVIFNRIPFLECRKENLMNGVKQLDEMNSPRIVKTHLPPELLPASFWEKDCKIIYLCRNAKDVAVSFYYFFLMVAGHPNPGSFPEFVEKFMQGQVPYGSWYKHVKSWWEKGKSPRVLFLFYEDLKEDIRKEVIKLIHFLERKPSEELVDRIIHHTSFQEMKNNPSTNYTTLPDEIMNQKLSPFMRKGITGDWKNHFTVALNEKFDKHYEQQMKESTLKFRTEI
notes: made in house; host or cells: Escherichia coli
Km [1]: 0.05 µM | Vmax [1]: 0.00835 µmol/min/mg | Vmax/Km [1]: 167000 µL/min/mg

B2: SULT1A1*2 (Homo sapiens; R213H) (protein)
chain: MELIQDTSRPPLEYVKGVPLIKYFAEALGPLQSFQARPDDLLISTYPKSGTTWVSQILDMIYQGGDLEKCHRAPIFMRVPFLEFKAPGIPSGMETLKDTPAPRLLKTHLPLALLPQTLLDQKVKVVYVARNAKDVAVSYYHFYHMAKVHPEPGTWDSFLEKFMVGEVSYGSWYQHVQEWWELSRTHPVLYLFYEDMKENPKREIQKILEFVGHSLPEETVDFVVQHTSFKEMKKNPMTNYTTVPQEFMDHSISPFMRKGMAGDWKTTFTVAQNERFDADYAEKMAGCSLSFRSEL
notes: purchased PanVera (Madison, WI); host or cells: Sf-9
Km [2]: 0.022 µM

B3: SULT1A1*1 (Homo sapiens) (protein)
chain: B2 chain with H213R
notes: as for B1
Km [3]: 0.018 µM | Vmax [3]: 0.00689 µmol/min/mg | Vmax/Km [3]: 383000 µL/min/mg

B4: SULT1A3 (Homo sapiens) (protein)
chain: MELIQDTSRPPLEYVKGVPLIKYFAEALGPLQSFQARPDDLLINTYPKSGTTWVSQILDMIYQGGDLEKCNRAPIYVRVPFLEVNDPGEPSGLETLKDTPPPRLIKSHLPLALLPQTLLDQKVKVVYVARNPKDVAVSYYHFHRMEKAHPEPGTWDSFLEKFMAGEVSYGSWYQHVQEWWELSRTHPVLYLFYEDMKENPKREIQKILEFVGRSLPEETMDFMVQHTSFKEMKKNPMTNYTTVPQELMDHSISPFMRKGMAGDWKTTFTVAQNERFDADYAEKMAGCSLSFRSEL
notes: as for B1
Km [4]: 2.90 µM | Vmax [4]: 0.333 µmol/min/mg | Vmax/Km [4]: 115000 µL/min/mg
